This note sets out measurements from US20240034757A1 (OXFORD UNIVERSITY INNOVATION, published 2024).

To fix the notation:
T1: P467_RHIPU (Rhipicephalus pulchellus, UniProt L7M8Z8 22-127)
T1 sequence: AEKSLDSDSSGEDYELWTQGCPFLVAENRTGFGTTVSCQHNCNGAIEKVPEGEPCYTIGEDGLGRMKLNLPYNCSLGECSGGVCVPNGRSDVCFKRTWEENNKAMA

T2: P546_AMBCA (Amblyomma cajennense, UniProt A0A023FBW7 22-118)
T2 sequence: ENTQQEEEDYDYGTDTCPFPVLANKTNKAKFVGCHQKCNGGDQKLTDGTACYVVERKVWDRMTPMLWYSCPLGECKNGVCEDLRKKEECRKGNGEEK

T3: P1180_AMBTR (Amblyomma triste, UniProt A0A023G6B6 26-116)
T3 sequence: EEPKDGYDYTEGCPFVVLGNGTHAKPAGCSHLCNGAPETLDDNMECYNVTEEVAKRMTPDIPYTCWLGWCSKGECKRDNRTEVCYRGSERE

T4: P1181_AMBMA (Amblyomma maculatum, UniProt G3MIX6 26-115)
T4 sequence: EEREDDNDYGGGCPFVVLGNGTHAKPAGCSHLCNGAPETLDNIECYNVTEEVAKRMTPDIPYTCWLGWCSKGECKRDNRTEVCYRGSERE

T5: P1182_AMBMA (Amblyomma maculatum, UniProt G3MJ83 27-115)
T5 sequence: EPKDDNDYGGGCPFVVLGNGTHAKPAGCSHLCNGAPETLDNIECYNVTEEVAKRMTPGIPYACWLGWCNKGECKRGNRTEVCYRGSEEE

T6: P1183_AMBTR (Amblyomma triste, UniProt A0A023G9N9 26-115)
T6 sequence: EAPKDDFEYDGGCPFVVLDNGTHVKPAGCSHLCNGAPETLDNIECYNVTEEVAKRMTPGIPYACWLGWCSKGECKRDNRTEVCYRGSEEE

T7: P1243_AMBAM (Amblyomma americanum, UniProt A0A0C9S461 26-123)
T7 sequence: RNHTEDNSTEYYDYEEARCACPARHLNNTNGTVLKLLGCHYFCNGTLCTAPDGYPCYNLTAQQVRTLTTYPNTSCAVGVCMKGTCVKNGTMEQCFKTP

T8: P672_RHIPU (Rhipicephalus pulchellus, UniProt L7MC74 22-125)
T8 sequence: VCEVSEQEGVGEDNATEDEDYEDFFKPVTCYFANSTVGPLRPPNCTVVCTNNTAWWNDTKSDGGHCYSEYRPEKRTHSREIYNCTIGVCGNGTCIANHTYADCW

T9: P974_AMBCA (Amblyomma cajennense, UniProt A0A023FDY8 22-118)
T9 sequence: T2 sequence with E8Q, S69E, E88D

T10: P985_AMBPA (Amblyomma parvum, UniProt A0A023FT45 25-132)
T10 sequence: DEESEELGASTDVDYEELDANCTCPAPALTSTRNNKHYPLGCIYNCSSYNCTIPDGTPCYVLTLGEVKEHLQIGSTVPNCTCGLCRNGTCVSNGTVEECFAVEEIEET

T11: P991_AMBCA (Amblyomma cajennense, UniProt A0A023FFD0 29-136)
T11 sequence: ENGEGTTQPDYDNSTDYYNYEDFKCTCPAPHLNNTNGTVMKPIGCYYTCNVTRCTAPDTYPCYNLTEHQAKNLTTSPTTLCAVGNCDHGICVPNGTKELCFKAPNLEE

T12: CXCL9_HUMAN (human, UniProt Q07325 23-125)
T12 sequence: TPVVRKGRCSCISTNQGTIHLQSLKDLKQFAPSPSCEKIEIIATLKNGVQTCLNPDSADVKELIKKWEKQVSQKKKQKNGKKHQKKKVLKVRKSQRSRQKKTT

T13: CXCL10_HUMAN (human, UniProt P02778 22-98)
T13 sequence: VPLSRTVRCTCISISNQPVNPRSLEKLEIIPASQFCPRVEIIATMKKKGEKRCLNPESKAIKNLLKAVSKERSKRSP

T14: CXCL11_HUMAN (human, UniProt O14625 22-94)
T14 sequence: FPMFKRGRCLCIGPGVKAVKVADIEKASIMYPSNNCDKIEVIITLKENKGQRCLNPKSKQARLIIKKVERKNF

T15: CXCL13_HUMAN (human, UniProt O43927 23-109)
T15 sequence: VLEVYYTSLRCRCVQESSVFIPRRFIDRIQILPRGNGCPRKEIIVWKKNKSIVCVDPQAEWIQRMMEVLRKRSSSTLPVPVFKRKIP

T16: CXCL14_HUMAN (human, UniProt O95715 35-111)
T16 sequence: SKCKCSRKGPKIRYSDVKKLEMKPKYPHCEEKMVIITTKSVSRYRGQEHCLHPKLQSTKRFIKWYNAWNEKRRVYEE

T17: CXCL7_HUMAN (human, UniProt P02775 59-128)
T17 sequence: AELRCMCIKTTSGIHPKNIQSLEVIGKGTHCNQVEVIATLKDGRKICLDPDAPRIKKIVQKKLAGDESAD

T18: CXCL2_HUMAN (human, UniProt P19875 35-107)
T18 sequence: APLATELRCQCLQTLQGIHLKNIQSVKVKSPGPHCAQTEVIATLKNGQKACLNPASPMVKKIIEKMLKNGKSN

T19: CXCL4_HUMAN (human, UniProt P02776 32-101)
T19 sequence: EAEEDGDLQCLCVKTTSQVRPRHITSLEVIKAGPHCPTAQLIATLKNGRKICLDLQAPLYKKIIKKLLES

T20: CXCL5_HUMAN (human, UniProt P42830 41-114)
T20 sequence: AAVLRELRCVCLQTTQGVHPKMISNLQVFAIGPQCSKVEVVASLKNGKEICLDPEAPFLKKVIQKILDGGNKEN

T21: CXCL6_HUMAN (human, UniProt P80162 38-114)
T21 sequence: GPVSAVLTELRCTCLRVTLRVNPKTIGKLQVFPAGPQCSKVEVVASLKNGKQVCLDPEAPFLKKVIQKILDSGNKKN

T22: CXCL1_HUMAN (human, UniProt P09341 35-107)
T22 sequence: T18 sequence with P2S, L3V, L20P, K27N, Q48R, M58I, K68N, N69S, G70D

T23: CXCL3_HUMAN (human, UniProt P19876 35-107)
T23 sequence: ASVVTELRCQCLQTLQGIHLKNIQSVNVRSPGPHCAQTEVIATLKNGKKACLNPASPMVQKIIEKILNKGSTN

T24: CXCL8_HUMAN (human, UniProt P10145 28-99)
T24 sequence: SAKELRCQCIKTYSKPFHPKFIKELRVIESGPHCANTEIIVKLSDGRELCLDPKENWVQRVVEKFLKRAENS

B1: CCL3L1_HUMAN (ligand)
chain: APLAADTPTACCFSYTSRQIPQNFIADYFETSSQCSKPSVIFLTKRGRQVCADPSEEWVQKYVSDLELSA
B2: EVA3_RHISA (other)
single chain: LVSTIESRTSGDGADNFDVVSCNKNCTSGQNECPEGCFCGLLGQNKKGHCYKIIGNLSGEPPVVRR
notes: also called Evasin-3; evasin 3
B3: CCL14_HUMAN (ligand)
chain: TESSSRGPYHPSECCFTYTTYKIPRQRIMDYYETNSQCSKPGIVFITKRGHSVCTNPSDKWVQDYIKDMKEN
B4: P1156_IXORI (other)
chain: ADDDNELFTVQYCGMNCTKDEGGTWTGCTGKKEGCKCYHESGKNYGLCLSTEYTDFSQYGNPSDSEIEAAKPKRSDTLSH
B5: CCL13_HUMAN (ligand)
chain: not shown
B6: P983_AMBCA (other)
chain: EDTGTEDDFDYGNTGCPFPVLGNYKSNMTKPVGCKNKCGSGYEVLNDTTPCYVIDQKVFNNMVPLRQYSKCPLGFCENGECKPNDQAEDCYKGREEQK

One experiment deals with T1, P467_RHIPU. As to the kind of experiment: BLI. (In BLI a coated tip is dipped into the sample, and binding shifts an interference pattern.)
Another experiment has as its target T2, P546_AMBCA. Briefly: BLI.
The next experiment addresses T3, P1180_AMBTR. As to the kind of experiment: BLI.
A further experiment deals with T4, P1181_AMBMA. Briefly: BLI.
In another experiment the target is T5, P1182_AMBMA. As to the kind of experiment: BLI.
For a further experiment, the target named is T6, P1183_AMBTR. As to the kind of experiment: BLI.
For experiment [1], the target named is T7, P1243_AMBAM. Briefly: BLI.
Another experiment has as its target T8, P672_RHIPU. As to the kind of experiment: BLI.
For a further experiment, the target named is T9, P974_AMBCA. As to the kind of experiment: BLI.
The experiment “P983_AMBCA” has as its target B6. As to the kind of experiment: BLI.
In a further experiment the target is T10, P985_AMBPA. As to the kind of experiment: BLI.
In the next experiment the target is T11, P991_AMBCA. As to the kind of experiment: BLI.
For experiment [2], the target named is T7, P1243_AMBAM. Briefly: BLI. The source holds these as a separate data set.
The target in another experiment is BK1.1FITC. As to the kind of experiment: fluorescence polarisation, 50 nM peptide.
The next experiment has as its target T12, CXCL9_HUMAN. As to the kind of experiment: BLI.
The target of another experiment is T13, CXCL10_HUMAN. As to the kind of experiment: BLI.
The target in the next experiment is T14, CXCL11_HUMAN. Briefly: BLI.
A further experiment deals with CXCL12_HUMAN (human, UniProt P48061 22-89). Briefly: BLI.
The target in the next experiment is T15, CXCL13_HUMAN. Briefly: BLI.
For another experiment, the target named is T16, CXCL14_HUMAN. As to the kind of experiment: BLI.
The next experiment concerns the target T17, CXCL7_HUMAN. As to the kind of experiment: BLI [Cont.].
In experiment [3] the target is T18, CXCL2_HUMAN. As to the kind of experiment: BLI [Cont.].
The target of a further experiment is T19, CXCL4_HUMAN. As to the kind of experiment: BLI [Cont.].
For experiment [4], the target named is T20, CXCL5_HUMAN. As to the kind of experiment: BLI [Cont.].
Experiment [5] addresses T21, CXCL6_HUMAN. As to the kind of experiment: BLI [Cont.].
In the next experiment the target is T22, CXCL1_HUMAN. As to the kind of experiment: BLI.
A further experiment concerns the target T23, CXCL3_HUMAN. As to the kind of experiment: BLI.
For another experiment, the target named is T24, CXCL8_HUMAN. As to the kind of experiment: BLI.
For experiment [6], the target named is T18, CXCL2_HUMAN. Briefly: BLI.
For experiment [7], the target named is T20, CXCL5_HUMAN. As to the kind of experiment: BLI.
Experiment [8] addresses T21, CXCL6_HUMAN. Briefly: BLI.
The next experiment has as its target CCL2_HUMAN (human, UniProt P13500 24-99). Briefly: cell-based or functional assay.

Numbering of substitutions follows the chain as printed. Read-outs that look alike come from different tables or passages of the source.

Sequence of CXCL12_HUMAN (P48061 22-89 limits assumed): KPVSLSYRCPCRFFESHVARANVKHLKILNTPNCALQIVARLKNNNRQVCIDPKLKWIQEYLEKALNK
Sequence of CCL2_HUMAN (P13500 24-99 limits assumed): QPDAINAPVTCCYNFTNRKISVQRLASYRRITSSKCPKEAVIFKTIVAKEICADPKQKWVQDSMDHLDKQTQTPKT

For orientation: Kd means the constant that tells how readily two partners part at equilibrium. A lower Kd goes with higher affinity. Consider B1, for which the Kd with P467_RHIPU is 0.524 nM; with P546_AMBCA, 15 nM; with P1180_AMBTR it was 2.2 nM; with P1181_AMBMA, 3.3 nM; with P1182_AMBMA, 9.5 nM; with P1183_AMBTR it was 110 nM. Also, the Kd in the experiment with P1243_AMBAM [1] stood at 5.05 nM; with P672_RHIPU it was 2.7 nM; in the experiment with P974_AMBCA, 13.1 nM; with P983_AMBCA it was 2.1 nM; with P985_AMBPA, 7.5 nM; with P991_AMBCA, 1.4 nM. The same molecule had a dissociation constant Kd with P1243_AMBAM [2] of 5.04 nM. Further, the binding result with BK1.1FITC is reported as “no binding (tested: 1 µM)”.

In the case of B2, the binding result with CXCL9_HUMAN, with CXCL10_HUMAN, with CXCL11_HUMAN, with CXCL12_HUMAN, in the experiment with CXCL13_HUMAN and with CXCL14_HUMAN was “no binding (tested: 300 nM)” each time. Moreover, the binding result in the experiment with CXCL7_HUMAN and in the experiment with CXCL4_HUMAN was “no binding (tested: 300 nM)” throughout. For the same molecule, the equilibrium dissociation constant (Kd) with CXCL2_HUMAN [3] was found to be 7.49 nM; with CXCL5_HUMAN [4], 24.9 nM; with CXCL6_HUMAN [5] it was 1.03 nM.

B3: the Kd in the experiment with P467_RHIPU is 4.13 nM; with P546_AMBCA, 28 nM; with P1180_AMBTR it was 4.4 nM; with P1181_AMBMA, 47 nM; with P1182_AMBMA it was 50 nM; with P1243_AMBAM [1] it was 0.816 nM. Besides, the dissociation constant Kd with P672_RHIPU was 5.5 nM; in the experiment with P974_AMBCA, 49.1 nM; with P983_AMBCA, 81 nM; in the experiment with P991_AMBCA it was 0.43 nM. Besides, the binding result in the experiment with BK1.1FITC is listed as “no binding (tested: 1 µM)”.

With B4, the “RT” value in the experiment with CXCL1_HUMAN was determined as 35.7 min; with CXCL3_HUMAN, 5.76 min; with CXCL8_HUMAN, 46.7 min; in the experiment with CXCL2_HUMAN [6] it was 4.2 min; in the experiment with CXCL5_HUMAN [7], 5.33 min; in the experiment with CXCL6_HUMAN [8] it was 3.23 min. For the same molecule, the binding result with CXCL9_HUMAN, with CXCL12_HUMAN and with CXCL13_HUMAN was “no binding (tested: 300 nM)” each time.

In the case of B5, the Kd with P467_RHIPU was determined as 2.56 nM; with P546_AMBCA, 13 nM; with P1180_AMBTR, 9 nM; with P1181_AMBMA, 19 nM; in the experiment with P1182_AMBMA it was 56 nM; with P1183_AMBTR, 5.7 nM. The Kd with P1243_AMBAM [1] was found to be 0.788 nM; with P974_AMBCA, 22.9 nM; in the experiment with P983_AMBCA, 17 nM; with P985_AMBPA it was 89 nM; with P991_AMBCA, 0.419 nM. In the experiment with BK1.1FITC, the binding result is listed as “no binding (tested: 1 µM)”.

On to B6, for which the “IC50, THP1 cell migration” value in the experiment with CCL2_HUMAN amounted to 5.95 nM.
